Experimental data: patent publication US20190062727A1 (University of Texas, published 2019)

Molecular target: T1, Rlip (RALBP1, RLIP76), endogenous protein of mouse embryonic fibroblasts and mouse liver (mouse, UniProt Q62172 2-648)
T1 construct: Endogenous protein, detected with a rabbit monoclonal anti-Rlip antibody from Abcam
T1 sequence (looked up): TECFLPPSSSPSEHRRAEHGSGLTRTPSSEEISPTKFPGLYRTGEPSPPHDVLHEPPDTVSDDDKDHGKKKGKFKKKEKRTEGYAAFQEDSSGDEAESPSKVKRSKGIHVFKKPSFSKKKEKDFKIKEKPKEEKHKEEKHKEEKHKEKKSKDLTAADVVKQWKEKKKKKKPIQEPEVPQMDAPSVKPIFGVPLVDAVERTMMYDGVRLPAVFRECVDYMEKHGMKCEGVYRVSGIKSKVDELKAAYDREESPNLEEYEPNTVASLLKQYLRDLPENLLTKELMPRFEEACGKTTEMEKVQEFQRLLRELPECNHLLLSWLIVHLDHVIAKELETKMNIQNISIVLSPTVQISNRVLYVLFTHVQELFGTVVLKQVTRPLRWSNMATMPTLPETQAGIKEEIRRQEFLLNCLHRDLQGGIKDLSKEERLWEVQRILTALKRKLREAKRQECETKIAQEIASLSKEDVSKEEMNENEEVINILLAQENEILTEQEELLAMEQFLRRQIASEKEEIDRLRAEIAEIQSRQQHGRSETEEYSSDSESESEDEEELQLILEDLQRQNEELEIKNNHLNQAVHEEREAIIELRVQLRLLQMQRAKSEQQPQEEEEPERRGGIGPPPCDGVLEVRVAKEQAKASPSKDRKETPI
Assay: co-immunoprecipitation from whole-cell homogenates of wt, p53+/- and p53-/- MEFs
Excerpt: Binding interactions of HSF1, Rlip and p53 in wt, p53^{-/-} MEFs without or with Rlip depletion using R508 were studied by co-immunoprecipitation using protein A/G PLUS-Agarose immunoprecipitation reagent sc-2003 from Santa Cruz Biotechnology (Columbus, Ohio) according to the manufacture's protocol using whole-cell homogenates of wild-type, p53^{-/-} or p53^{+/-} MEFs. Primary anti-HSF1 rabbit monoclonal antibody (D3L8I) and anti-p53 mouse monoclonal antibody was from Cell Signaling Technology (Danvers, Mass.), and rabbit monoclonal anti-Rlip antibody was from Abcam (Cambridge, Mass.). The specificity of primary antibodies was tested using MEFs from either p53^{-/-} or Rlip^{-/-} MEFs. The corresponding probes of anti-rabbit PLUS and anti-mouse MINUS were provided in the kit and used per the manufacturer's instructions. wt, p53^{-/-} and […]. […] Slides were visualized by fluorescence microscopy using an Olympus BX50 microscope, and photomicrographs were taken using a 40× objective.
The 4-hydroxynonenal (4HNE) and8-OH-deoxyguanosine (8OHdG) levels were measured in liver homogenate using Oxiselect kits from Cell Biolabs, San Diego, Calif. by procedures described in Methods and the results are shown in FIG. 2A and FIG. 2B, respectively. […]

binding result: binds
B1: p53 (TP53), endogenous protein of mouse embryonic fibroblasts and mouse liver (other, UniProt P02340 1-390, looked up)
chain: MTAMEESQSDISLELPLSQETFSGLWKLLPPEDILPSPHCMDDLLLPQDVEEFFEGPSEALRVSGAPAAQDPVTETPGPVAPAPATPWPLSSFVPSQKTYQGNYGFHLGFLQSGTAKSVMCTYSPPLNKLFCQLAKTCPVQLWVSATPPAGSRVRAMAIYKKSQHMTEVVRRCPHHERCSDGDGLAPPQHLIRVEGNLYPEYLEDRQTFRHSVVVPYEPPEAGSEYTTIHYKYMCNSSCMGGMNRRPILTIITLEDSSGNLLGRDSFEVRVCACPGRDRRTEEENFRKKEVLCPELPPGSAKRALPTCTSASPPQKKKPLDGEYFTLKIRGRKRFEMFRELNEALELKDAHATEESGDSRAHSSYLKTKKGQSTSRHKKTMVKKVGPDSD
notes: Endogenous protein, detected with a mouse monoclonal anti-p53 antibody from Cell Signaling Technology
